This is an account of results in patent US20230250170A1.

For assay [1], the target named is human NPR1 on HEK293/hNPR1 cells (human) (UniProt P16066). Briefly: cell-based or functional assay.
Assay [2] has as its target hNPR1-MMH in the presence of hANP (receptor-ligand complex) (human) (UniProt P01160). The assay is described as follows: SPR Biacore 8K, mAb captured via anti-hFc, 25 C, 10-fold hANP present. For orientation: In SPR one partner is held on a chip, and binding of the other changes the refractive index at the surface.
The target of assay [3] is dog NPR1 extracellular domain expressed with a C-terminal myc-myc-hexahistidine (dog). The assay is described as follows: SPR Biacore 8K, mAb captured via anti-hFc, 25 C.
Assay [4] addresses pig NPR1 extracellular domain expressed with a C-terminal myc-myc-hexahistidine (pig). The assay is described as follows: SPR Biacore 8K, mAb captured via anti-hFc, 25 C.
The target in assay [5] is mouse NPR1 extracellular domain expressed with a C-terminal myc-myc-hexahistidine (mouse) (UniProt P18293). The assay is described as follows: SPR Biacore 8K, mAb captured via anti-hFc, 25 C.
Assay [6] addresses human NPR1 extracellular domain expressed with a C-terminal myc-myc-hexahistidine (human) (UniProt P16066). Briefly: SPR Biacore 8K, mAb captured via anti-hFc, 25 C.
Assay [7] deals with monkey NPR1 extracellular domain expressed with a C-terminal myc-myc-hexahistidine (monkey). Briefly: SPR Biacore 8K, mAb captured via anti-hFc, 25 C.
The target in assay [8] is hNPR1-MMH in the presence of hANP (receptor-ligand complex) (human) (UniProt P01160). Briefly: SPR Biacore 8K, mAb captured via anti-hFc, 37 C, 10-fold hANP present.
In assay [9] the target is human NPR1 extracellular domain expressed with a C-terminal myc-myc-hexahistidine (human) (UniProt P16066). The assay is described as follows: SPR Biacore 4000, mAb captured via anti-hFc, 37 C, binding pH 7.4, dissociation pH 6.0.
Assay [10] addresses monkey NPR1 extracellular domain expressed with a C-terminal myc-myc-hexahistidine (monkey). Described as above.
Assay [11] addresses dog NPR1 extracellular domain expressed with a C-terminal myc-myc-hexahistidine (dog). The assay is described as follows: SPR Biacore 8K, mAb captured via anti-hFc, 37 C.
For assay [12], the target named is pig NPR1 extracellular domain expressed with a C-terminal myc-myc-hexahistidine (pig). The assay is described as follows: SPR Biacore 8K, mAb captured via anti-hFc, 37 C.
For assay [13], the target named is mouse NPR1 extracellular domain expressed with a C-terminal myc-myc-hexahistidine (mouse) (UniProt P18293). Briefly: SPR Biacore 8K, mAb captured via anti-hFc, 37 C.
In assay [14] the target is human NPR1 extracellular domain expressed with a C-terminal myc-myc-hexahistidine (human) (UniProt P16066). Briefly: SPR Biacore 8K, mAb captured via anti-hFc, 37 C.
Assay [15] concerns the target monkey NPR1 extracellular domain expressed with a C-terminal myc-myc-hexahistidine (monkey). Briefly: SPR Biacore 8K, mAb captured via anti-hFc, 37 C.
Assay [16] has as its target human NPR1 extracellular domain expressed with a C-terminal myc-myc-hexahistidine (human) (UniProt P16066). The assay is described as follows: SPR Biacore 4000, mAb captured via anti-hFc, 37 C, binding pH 7.4, dissociation pH 7.4.
Assay [17] concerns the target monkey NPR1 extracellular domain expressed with a C-terminal myc-myc-hexahistidine (monkey). The description is as above.

Chain of human NPR1 extracellular domain expressed with a C-terminal myc-myc-hexahistidine (human) (P16066 other isoform, or with tags, fused parts or gaps): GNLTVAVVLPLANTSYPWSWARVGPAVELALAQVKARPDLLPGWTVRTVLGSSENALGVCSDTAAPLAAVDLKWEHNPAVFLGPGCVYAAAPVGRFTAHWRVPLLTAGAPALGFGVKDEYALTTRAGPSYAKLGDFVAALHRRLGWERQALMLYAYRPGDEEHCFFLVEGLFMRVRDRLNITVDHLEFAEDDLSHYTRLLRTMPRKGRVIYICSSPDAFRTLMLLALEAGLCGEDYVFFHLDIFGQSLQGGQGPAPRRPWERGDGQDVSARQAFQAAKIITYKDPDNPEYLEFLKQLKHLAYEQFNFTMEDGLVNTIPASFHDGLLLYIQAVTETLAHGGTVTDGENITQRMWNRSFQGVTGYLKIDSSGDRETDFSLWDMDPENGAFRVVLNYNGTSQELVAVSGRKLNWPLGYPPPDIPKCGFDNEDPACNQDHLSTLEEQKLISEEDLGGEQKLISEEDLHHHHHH
Chain of monkey NPR1 extracellular domain expressed with a C-terminal myc-myc-hexahistidine (monkey) (P16066 other isoform, or with tags, fused parts or gaps): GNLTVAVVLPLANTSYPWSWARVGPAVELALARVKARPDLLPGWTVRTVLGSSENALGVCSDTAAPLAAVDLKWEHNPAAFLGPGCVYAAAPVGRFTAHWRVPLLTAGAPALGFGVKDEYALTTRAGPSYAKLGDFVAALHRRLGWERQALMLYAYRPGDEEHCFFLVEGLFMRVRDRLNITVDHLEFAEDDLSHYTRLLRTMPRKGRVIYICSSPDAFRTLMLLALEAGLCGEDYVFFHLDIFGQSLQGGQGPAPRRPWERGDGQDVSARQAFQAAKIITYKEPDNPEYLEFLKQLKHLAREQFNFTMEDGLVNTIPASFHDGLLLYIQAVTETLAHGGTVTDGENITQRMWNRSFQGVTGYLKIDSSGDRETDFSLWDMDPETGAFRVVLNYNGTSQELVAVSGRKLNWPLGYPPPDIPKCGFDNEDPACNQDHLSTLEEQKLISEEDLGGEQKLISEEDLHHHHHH
Chain of human NPR1 on HEK293/hNPR1 cells (human) (P16066 33-1061): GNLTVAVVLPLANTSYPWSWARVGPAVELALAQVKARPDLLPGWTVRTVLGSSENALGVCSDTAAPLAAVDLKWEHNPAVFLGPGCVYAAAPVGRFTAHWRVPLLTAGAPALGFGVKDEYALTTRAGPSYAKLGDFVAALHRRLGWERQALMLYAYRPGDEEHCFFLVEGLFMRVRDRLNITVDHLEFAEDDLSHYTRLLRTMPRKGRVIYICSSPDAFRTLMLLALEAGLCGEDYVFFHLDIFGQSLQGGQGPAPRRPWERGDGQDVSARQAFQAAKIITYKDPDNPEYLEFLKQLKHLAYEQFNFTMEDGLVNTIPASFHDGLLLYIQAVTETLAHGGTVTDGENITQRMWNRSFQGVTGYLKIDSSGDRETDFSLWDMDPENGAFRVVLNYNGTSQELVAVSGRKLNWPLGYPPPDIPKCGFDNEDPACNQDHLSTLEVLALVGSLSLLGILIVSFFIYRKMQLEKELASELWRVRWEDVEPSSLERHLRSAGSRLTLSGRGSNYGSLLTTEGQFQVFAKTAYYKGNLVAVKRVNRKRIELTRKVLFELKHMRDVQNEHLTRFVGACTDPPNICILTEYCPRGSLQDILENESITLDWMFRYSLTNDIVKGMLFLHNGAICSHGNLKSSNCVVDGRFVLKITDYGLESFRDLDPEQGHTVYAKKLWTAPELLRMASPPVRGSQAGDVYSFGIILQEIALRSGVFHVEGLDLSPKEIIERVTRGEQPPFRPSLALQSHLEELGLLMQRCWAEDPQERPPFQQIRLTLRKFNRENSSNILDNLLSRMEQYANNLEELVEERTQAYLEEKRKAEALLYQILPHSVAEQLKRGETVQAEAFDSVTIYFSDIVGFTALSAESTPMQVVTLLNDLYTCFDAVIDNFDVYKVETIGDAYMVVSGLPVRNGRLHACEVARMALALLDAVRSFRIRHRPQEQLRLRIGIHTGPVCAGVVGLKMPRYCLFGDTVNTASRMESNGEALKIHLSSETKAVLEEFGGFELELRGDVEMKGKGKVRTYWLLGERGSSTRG
Chain of pig NPR1 extracellular domain expressed with a C-terminal myc-myc-hexahistidine (pig) (chain, as listed by the source limits assumed): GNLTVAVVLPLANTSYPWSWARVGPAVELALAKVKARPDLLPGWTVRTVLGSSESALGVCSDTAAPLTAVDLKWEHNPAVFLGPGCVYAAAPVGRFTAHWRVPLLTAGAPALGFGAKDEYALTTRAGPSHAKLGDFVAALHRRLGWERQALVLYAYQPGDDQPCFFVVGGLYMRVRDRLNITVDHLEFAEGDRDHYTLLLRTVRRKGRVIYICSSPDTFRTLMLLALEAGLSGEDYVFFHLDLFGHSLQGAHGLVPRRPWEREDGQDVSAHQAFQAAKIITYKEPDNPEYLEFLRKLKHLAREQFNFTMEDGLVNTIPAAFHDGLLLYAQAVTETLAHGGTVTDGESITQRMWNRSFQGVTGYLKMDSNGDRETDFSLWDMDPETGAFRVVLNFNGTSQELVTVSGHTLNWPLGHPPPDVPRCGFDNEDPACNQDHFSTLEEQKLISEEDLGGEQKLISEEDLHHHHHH
Chain of hNPR1-MMH in the presence of hANP (receptor-ligand complex) (human) (P01160 124-151 limits assumed, chain 2 of 2): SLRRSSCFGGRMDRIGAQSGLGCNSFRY
Chain of mouse NPR1 extracellular domain expressed with a C-terminal myc-myc-hexahistidine (mouse) (P18293 other isoform, or with tags, fused parts or gaps): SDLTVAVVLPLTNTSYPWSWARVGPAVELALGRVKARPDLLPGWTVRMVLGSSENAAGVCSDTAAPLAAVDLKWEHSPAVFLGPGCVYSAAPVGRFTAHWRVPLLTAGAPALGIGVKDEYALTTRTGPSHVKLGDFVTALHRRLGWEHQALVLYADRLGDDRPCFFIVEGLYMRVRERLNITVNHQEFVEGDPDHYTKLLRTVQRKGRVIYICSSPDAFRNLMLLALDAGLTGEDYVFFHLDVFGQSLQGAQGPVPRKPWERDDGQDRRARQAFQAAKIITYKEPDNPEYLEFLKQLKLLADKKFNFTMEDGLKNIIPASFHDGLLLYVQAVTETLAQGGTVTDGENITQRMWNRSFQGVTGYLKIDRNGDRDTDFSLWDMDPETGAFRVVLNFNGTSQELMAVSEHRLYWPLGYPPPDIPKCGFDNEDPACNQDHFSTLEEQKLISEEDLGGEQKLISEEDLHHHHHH
Chain of dog NPR1 extracellular domain expressed with a C-terminal myc-myc-hexahistidine (dog) (chain, as listed by the source limits assumed): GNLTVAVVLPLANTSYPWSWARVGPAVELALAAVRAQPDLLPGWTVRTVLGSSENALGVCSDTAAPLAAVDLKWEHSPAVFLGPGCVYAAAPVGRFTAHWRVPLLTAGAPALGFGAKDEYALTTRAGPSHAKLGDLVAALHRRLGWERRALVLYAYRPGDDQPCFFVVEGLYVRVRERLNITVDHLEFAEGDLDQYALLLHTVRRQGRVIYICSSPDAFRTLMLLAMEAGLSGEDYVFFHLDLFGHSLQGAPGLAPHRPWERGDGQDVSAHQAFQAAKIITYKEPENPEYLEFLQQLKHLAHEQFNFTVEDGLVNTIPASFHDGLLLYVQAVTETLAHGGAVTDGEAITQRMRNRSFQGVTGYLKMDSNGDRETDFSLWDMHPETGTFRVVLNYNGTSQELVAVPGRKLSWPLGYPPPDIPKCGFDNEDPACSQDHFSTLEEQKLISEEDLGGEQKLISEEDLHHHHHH

Isotype control (antibody): the Max Kill, %, secondary ADC mediated cytotoxicity, no ligand in assay [1] was 0.01%. In addition, in assay [1], the Max Kill, %, secondary ADC mediated cytotoxicity, with 100 nM ANP is -4%. The substance further returned a Max Kill, %, secondary ADC mediated cytotoxicity, with 100 nM BNP in [1] of 0.5%. Also, the Max inh., %, cGMP accumulation assay, with 0.2 nM ANP in assay [1] was -1%. Also, the Max inh., %, cGMP accumulation assay, with 0.7 nM BNP in assay [1] is -9%. Also, the 40 nM Ag Bound (RU) in [2] is 0 RU; in [3] it was 0 RU; in assay [4] it was 0 RU; in assay [5], 0 RU; in [6], 0 RU; in assay [7] it was 1 RU. Besides, the 40 nM Ag Bound (RU) in [8], in assay [11], in assay [12], in assay [13], in assay [14] and in assay [15] was 0 RU each time. For the same substance, the 30 nM Ag Bound (RU) is 2 RU in assay [9], 2 RU in assay [10], 2 RU in assay [16] and 1 RU in [17].
